In patent US20260226120A1 (University of Washington, published 2026):
Several values for one entry are separate records, joined by “and”; a condition that tells them apart may be missing. Identical values can stand only once.

Molecular target: HLA-DQ7 (MHC class II) on autologous antigen presenting cells (BLCL) of patient 5 (human)
Assay: cell-based or functional assay

Row | Binder | interferon gamma ELISpot with expanded patient 5 T cells
1 | LSDGTGLNAL [P17 redesign Des-3 peptide (163-LSDGTGLNAL-172)] | ~25 spot forming units/10,000 cells
2 | WSNGLGLDAL [P17 redesign Des-1 peptide (163-WSNGLGLDAL-172)] | ~25 spot forming units/10,000 cells
3 | WSDGLALNAL [native dystrophin exon-6 P17 HLA-DQ7 epitope peptide (163-WSDGLALNAL-172)] | ~75 spot forming units/10,000 cells and ~3 fold above background
4 | WSDGTGLNAL [P17 redesign Des-2 peptide (163-WSDGTGLNAL-172)] | ~25 spot forming units/10,000 cells
